The record followed here is paper PMC6032241, “UDP-Glucose 4-Epimerase and β-1,4-Galactosyltransferase from the Oyster Magallana gigas as Valuable Biocatalysts for the Production of Galactosylated Products” (International Journal of Molecular Sciences, 2018).

The target of data set [1] is T1, MgGalT7 (Magallana gigas, UniProt Z9LX56G651).
T1 sequence (Z9LX56G651 34-312): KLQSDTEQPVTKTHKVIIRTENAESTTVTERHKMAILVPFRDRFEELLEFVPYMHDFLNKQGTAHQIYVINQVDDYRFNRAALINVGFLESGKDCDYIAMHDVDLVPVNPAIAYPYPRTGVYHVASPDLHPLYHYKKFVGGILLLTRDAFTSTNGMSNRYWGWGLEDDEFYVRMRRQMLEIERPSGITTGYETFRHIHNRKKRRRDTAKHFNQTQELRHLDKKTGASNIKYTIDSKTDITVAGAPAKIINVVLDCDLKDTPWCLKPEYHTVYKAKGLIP
The data set is described as follows: coupled galactosylation with MgUGE, HPLC-ESI-MS. It counts as biochemical. The note with it: acceptor 10 mM; 15 mM UDP-glucose converted to UDP-galactose by MgUGE, 1 mM MnCl2, 50 mM Tris-HCl pH 8.0, 37 °C, 24 h.

Substrate in data set [2]: O=c1ccn([C@@H]2O[C@H](COP(=O)(O)OP(=O)(O)O[C@H]3O[C@H](CO)[C@H](O)[C@H](O)[C@H]3O)[C@@H](O)[C@H]2O)c(=O)[nH]1
Put plainly: purified protein. The format is biochemical, Magallana gigas. Conditions: 50 mM Tris-HCl pH 8.0, 22 °C, UDP-galactose 10 µM to 2 mM.

In the case of `O=[N+]([O-])c1ccc(O[C@H]2OC[C@@H](O)[C@H](O)[C@H]2O)cc1` [pNP-xylose], the “coupled galactosylation with MgUGE, HPLC-ESI-MS” value in data set [1] is recorded as “(MgGalT7), allowing the galactosylation of the model substrate para-nitrophenol xylose (pNP-xylose)”.

B1: MgUGE (Magallana gigas) (protein)
chain: MGDSCILVTGGAGFVGSHSVIELIEAGYSVVVMDNLANASMESIKRVEEITGKSIPSYSVDLLDKPALSDLFNKHKFTSVIHFAGLKAVGESCQLPLLYYKNNVGGTVNLLEVMKEKGVKNLIFSSSATVYGSPQYLPIDEKHPVGGCTNPYGKTKYFIEEILRDLHKAEPDWNIIMLRYFNPVGAHKSGKIGEDPQGIPNNLMPFIAQVAVGKRAELSVYGSDYDTPDGTGVRDYIHVVDLAQGHVAAQKKIEKKCGCKVYNLGTGKGYSVIEMAKAFEEASGKPIPFKKVDRRAGDVASVYGNADLAKEELGWSASRDLKQMCEDTWRWQSSNPNGFRK
notes: forward primer encodes N-terminus MGDSCIL
Take B1: in data set [2], the Km stood at 1600 ± 100 µM and the kcat came to 2.23 ± 0.2 s⁻¹.
